# Laboratory results: patent CN109081868A (INST PASTEUR SHANGHAI CAS, dated 2018)
# Molecular target: T1, ZIKV E80 (寨卡病毒包膜蛋白N端80%区域, 氨基酸1-409) (Zika virus (2015 South American …, UniProt A0A024B7W1 291-699))
# T1 construct: also called ZKE80
# Assay: BLI (Octet-Red), biotinylated ZIKV E80 on streptavidin sensor, antibody at 40-0.064 ug/ml in solution
# T1 sequence (A0A024B7W1 291-699): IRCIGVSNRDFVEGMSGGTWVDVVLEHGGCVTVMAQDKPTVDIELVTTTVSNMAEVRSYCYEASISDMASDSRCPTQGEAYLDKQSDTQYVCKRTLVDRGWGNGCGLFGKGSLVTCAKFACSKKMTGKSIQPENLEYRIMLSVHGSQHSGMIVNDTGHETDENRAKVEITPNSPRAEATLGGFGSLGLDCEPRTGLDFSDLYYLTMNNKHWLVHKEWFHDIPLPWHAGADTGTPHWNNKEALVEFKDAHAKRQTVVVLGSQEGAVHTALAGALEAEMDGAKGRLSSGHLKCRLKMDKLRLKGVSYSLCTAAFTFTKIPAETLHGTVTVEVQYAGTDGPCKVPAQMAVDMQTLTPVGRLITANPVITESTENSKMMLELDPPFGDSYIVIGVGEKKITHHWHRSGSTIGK
binder,measurement,value
"单克隆抗体5F8 (antibody, V domains shown, also called 单抗5F8; 重组5F8) VH: QVQLQQSGAELVRPGVSAKISCKASGYIFTDYAMHWVKQSHAKSLEWIGLISTKSGAANYNQKFTDKATLTVDKSSSTAYLELARLTSEDSAIYYCARNDYLAWLPYWGQGTLVTVSA VL: DVLMTQTPLSLPVSLGDHASISCRSSQSIVHSNGNTYLEWYLQKPGQSPKLLIYKVSYRFSGVPDRFSGSGSGTDFTLKISRVEAEDLGVYYCFQGSHVPWTFGGGTKLEIK",Kd,15 nM
